T1: Smc6 (Walker B mutant E1048Q), subunit of the S. cerevisiae Smc5/6 holo-complex (S. cerevisiae, UniProt Q12749 1-1114, E1048Q)
T1 construct: Smc6, Saccharomyces cerevisiae; the model holds amino acids 74-213, 215-290, 292-370, 387-431, 436-805, 814-919, 922-1104; The complex was crosslinked with BS3; also called ν-SMC; source: recombinant, expressed in insect cells, purified as holo-complex (Superose 6 SEC), BS3-crosslinked
T1 sequence: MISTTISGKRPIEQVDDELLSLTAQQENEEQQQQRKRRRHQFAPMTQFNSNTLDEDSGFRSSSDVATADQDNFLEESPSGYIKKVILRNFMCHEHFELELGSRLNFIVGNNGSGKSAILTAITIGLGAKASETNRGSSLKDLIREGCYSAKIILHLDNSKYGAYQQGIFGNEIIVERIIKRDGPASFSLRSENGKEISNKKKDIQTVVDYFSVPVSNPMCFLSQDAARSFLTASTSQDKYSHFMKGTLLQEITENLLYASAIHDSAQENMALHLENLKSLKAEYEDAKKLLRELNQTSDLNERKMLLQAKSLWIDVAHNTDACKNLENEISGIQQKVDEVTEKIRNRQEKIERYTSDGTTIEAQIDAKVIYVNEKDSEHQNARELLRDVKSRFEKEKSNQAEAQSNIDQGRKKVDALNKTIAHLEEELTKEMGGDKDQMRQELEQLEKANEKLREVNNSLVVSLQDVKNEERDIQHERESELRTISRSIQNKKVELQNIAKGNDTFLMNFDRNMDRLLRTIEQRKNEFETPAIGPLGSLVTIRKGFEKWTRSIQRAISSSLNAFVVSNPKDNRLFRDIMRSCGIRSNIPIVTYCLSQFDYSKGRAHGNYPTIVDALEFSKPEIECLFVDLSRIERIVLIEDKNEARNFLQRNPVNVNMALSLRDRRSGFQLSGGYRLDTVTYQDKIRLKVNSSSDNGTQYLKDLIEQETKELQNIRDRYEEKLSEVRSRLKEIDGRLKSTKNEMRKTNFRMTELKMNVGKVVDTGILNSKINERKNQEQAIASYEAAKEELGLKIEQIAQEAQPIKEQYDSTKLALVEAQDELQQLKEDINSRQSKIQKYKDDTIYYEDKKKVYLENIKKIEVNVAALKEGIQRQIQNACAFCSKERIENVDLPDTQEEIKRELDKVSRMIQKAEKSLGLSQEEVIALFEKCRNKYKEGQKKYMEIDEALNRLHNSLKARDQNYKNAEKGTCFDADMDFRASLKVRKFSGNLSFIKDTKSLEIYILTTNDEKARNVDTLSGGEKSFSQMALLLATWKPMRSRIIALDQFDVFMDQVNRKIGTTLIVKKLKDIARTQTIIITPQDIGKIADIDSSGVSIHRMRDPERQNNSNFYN

B1: Smc5 (Walker B mutant E1015Q), subunit of the S. cerevisiae Smc5/6 holo-complex (natural protein)
chain: MTSLIDLGRYVERTHHGEDTEPRSKRVKIAKPDLSSFQPGSIIKIRLQDFVTYTLTEFNLSPSLNMIIGPNGSGKSTFVCAVCLGLAGKPEYIGRSKKVEDFIKNGQDVSKIEITLKNSPNVTDIEYIDARDETIKITRIITRSKRRSDYLINDYQVSESVVKTLVAQLNIQLDNLCQFLSQERVEEFARLKSVKLLVETIRSIDASLLDVLDELRELQGNEQSLQKDLDFKKAKIVHLRQESDKLRKSVESLRDFQNKKGEIELHSQLLPYVKVKDHKEKLNIYKEEYERAKANLRAILKDKKPFANTKKTLENQVEELTEKCSLKTDEFLKAKEKINEIFEKLNTIRDEVIKKKNQNEYYRGRTKKLQATIISTKEDFLRSQEILAQTHLPEKSVFEDIDIKRKEIINKEGEIRDLISEIDAKANAINHEMRSIQRQAESKTKSLTTTDKIGILNQDQDLKEVRDAVLMVREHPEMKDKILEPPIMTVSAINAQFAAYLAQCVDYNTSKALTVVDSDSYKLFANPILDKFKVNLRELSSADTTPPVPAETVRDLGFEGYLSDFITGDKRVMKMLCQTSKIHTIPVSRRELTPAQIKKLITPRPNGKILFKRIIHGNRLVDIKQSAYGSKQVFPTDVSIKQTNFYQGSIMSNEQKIRIENEIINLKNEYNDRKSTLDALSNQKSGYRHELSELASKNDDINREAHQLNEIRKKYTMRKSTIETLREKLDQLKREARKDVSQKIKDIDDQIQQLLLKQRHLLSKMASSMKSLKNCQKELISTQILQFEAQNMDVSMNDVIGFFNEREADLKSQYEDKKKFVKEMRDTPEFQSWMREIRSYDQDTKEKLNKVAEKYEEEGNFNLSFVQDVLDKLESEIAMVNHDESAVTILDQVTAELRELEHTVPQQSKDLETIKAKLKEDHAVLEPKLDDIVSKISARFARLFNNVGSAGAVRLEKPKDYAEWKIEIMVKFRDNAPLKKLDSHTQSGGERAVSTVLYMIALQEFTSAPFRVVDQINQGMDSRNERIVHKAMVENACAENTSQYFLITPKLLTGLHYHEKMRIHCVMAGSWIPNPSEDPKMIHFGETSNYSFD
notes: Smc5, Saccharomyces cerevisiae; the model holds amino acids 35-390, 394-882, 884-1068; The complex was crosslinked with BS3; also called κ-SMC; source: recombinant, expressed in insect cells, purified as holo-complex (Superose 6 SEC), BS3-crosslinked
B2: Nse4 with HaloTag, kleisin subunit of the S. cerevisiae Smc5/6 holo-complex (natural protein)
chain: MSSTVISRKRRNSTVTEPDSSGETRKQKKSRSDEKSSSSKDGDPQLEFKVLQGYRDLESEMHKGRAQVTRTGDIGVAMDNLNAVDSLFNKVIGIKNNGLFAHDARAMVSISELAQISVRNLKFDDSRSMVNLENIVNSLKRYMLKEHFKLNNIAENRNDLTLAADEQSAADQQEESDGDIDRTPDDNHTDKATSSFKATSMRHSYLQQFSHYNEFSQFNWFRIGALYNTISKNAPITDHLMGPLSIEKKPRVLTQRRRNNDQVGEKITAEKITQHSLNSTQQETTPEQVKKCFKKLSKKLGPEGSINLFKFIIDPNSFSRSIENLFYTSFLIKEGKLLMEHDEEGLPTIKIKQSISHTDSRSKEIERQRRRAAHQNHIIFQMDMPTWRKLIKKYNITSPFLD
notes: Nse4, Saccharomyces cerevisiae; the model holds amino acids 40-124, 184-202, 213-245, 283-402; Density of the HaloTag attached to Nse4 was removed by particle subtraction, so the tag was on the protein on the grid; its end is told only for the yeast strain (C-terminal), not for the recombinant protein; source: recombinant, expressed in insect cells, purified as holo-complex (Superose 6 SEC), …

Key:
Test in all cases: cryo-EM structure; BS3-crosslinked six-subunit holo-complex, apo / non-liganded; fractions from Superose 6 diluted to 20 mM HEPES.NaOH pH 7.5, 50 mM NaCl, 0.5 mM TCEP, 0.1 mg/ml; maps at 10.8 Å (holo-complex), 8.53 Å (hinge/arm) and 6.5 Å (head-only); pseudo-atomic model built from homology and AlphaFold models
Settings in all cases: both partners purified
[1] = target: T1, Smc6 (Walker B mutant E1048Q), subunit …
[2] = target: B1
[3] = target: B2

Row | binding result [1] | binding result [2] | binding result [3] | Binder
1 | binds |  |  | B1
2 | binds | binds |  | B2
3 | binds | binds |  | Nse2 (Mms21), subunit of the S. cerevisiae Smc5/6 holo-complex (natural protein, Nse2 (Mms21), Saccharomyces cerevisiae; the model holds amino acids 1-267; source: recombinant, expressed in insect cells, purified as holo-complex (Superose 6 SEC), BS3-crosslinked) MALNDNPIPKSVPLHPKSGKYFHNLHARDLSNIYQQCYKQIDETINQLVDSTSPSTIGIEEQVADITSTYKLLSTYESESNSFDEHIKDLKKNFKQSSDACPQIDLSTWDKYRTGELTAPKLSELYLNMPTPEPATMVNNTDTLKILKVLPYIWNDPTCVIPDLQNPADEDDLQIEGGKIELTCPITCKPYEAPLISRKCNHVFDRDGIQNYLQGYTTRDCPQAACSQVVSMRDFVRDPIMELRCKIAKMKESQEQDKRSSQAIDVL
4 |  | binds | binds | Nse1, subunit of the S. cerevisiae Smc5/6 holo-complex (natural protein, Nse1, Saccharomyces cerevisiae; the model holds amino acids 11-336; also called KITE subunit; source: recombinant, expressed in insect cells, purified as holo-complex (Superose 6 SEC), BS3-crosslinked) MEVHEEQVSAPVTGDATAKYLLQYILSARGICHENALILALMRLETDASTLNTEWSIQQWVDKLNDYINAINVKLNLLGYKIIRINHGIGRNAVTLKAKQNFESFEDNTAIRAHNNDYAVLQSIVLPESNRFFVYVNLASTEETKLATRFNQNEIEFMKWAIEQFMISGETIVEGPALETSIIVKEVNRILVAATGDSNLAKWRKFSTFTVGSTNLFQFQELTATDIEDLLLRLCELKWFYRTQEGKFGIDLRCIAELEEYLTSMYNLNTCQNCHKLAIQGVRCGNESCREENEETGENSLSQIWHVDCFKHYITHVSKNCDRCGSSLITEGVYVI

Source: paper PMC9458440, “Cryo-EM structure of the Smc5/6 holo-complex” (Nucleic Acids Research, 2022)
